# Reference: publication PMC4155686, “Oleoyl Coenzyme A Regulates Interaction of Transcriptional Regulator RaaS (Rv1219c) with DNA in Mycobacteria*” (The Journal of Biological Chemistry, 2014)
# Changes are numbered by the printed parent chain. Names may count otherwise.
# T1: RaaS R140A (Mycobacterium tuberculosis, UniProt O86312 1-212, R140A)
# T1 sequence: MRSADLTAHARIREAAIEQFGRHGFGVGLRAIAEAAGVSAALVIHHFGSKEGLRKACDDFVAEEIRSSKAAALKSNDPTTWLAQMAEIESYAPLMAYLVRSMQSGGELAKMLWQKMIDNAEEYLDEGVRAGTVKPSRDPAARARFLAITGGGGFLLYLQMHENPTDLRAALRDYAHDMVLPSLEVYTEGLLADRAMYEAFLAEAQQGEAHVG
# T2: RaaS Y174A (Mycobacterium tuberculosis, UniProt O86312 1-212, Y174A)
# T2 sequence: T1 sequence with A140R, Y174A
# T3: RaaS R144A (Mycobacterium tuberculosis, UniProt O86312 1-212, R144A)
# T3 sequence: T1 sequence with A140R, R144A
# B1: Pr14F/Pr14R (ATTO 647N) (dsDNA)
# DNA 1: GGGATGAACGTACGTTTAATATCCTGAACATGCGTTCAG
# DNA 2: GGGCTGAACGCATGTTCAGGATATTAAACGTACGTTCAT
# B2: RaaS (Rv1219c) R144A mutant (natural protein)
# chain: T1 sequence with A140R, R144A
# B3: RaaS (Rv1219c) Y174A mutant (natural protein)
# chain: T1 sequence with A140R, Y174A
# Key:
# [1] = target: T1, RaaS R140A; experiment: fluorescence anisotropy; 4 nM DNA; details: protein: recombinant; chain copies: 2
# [2] = target: T2, RaaS Y174A; experiment: fluorescence anisotropy; 4 nM DNA; FA: 50 mM Tris-HCl pH 8.5, 150 mM NaCl, temperature not stated; EMSA: 50 mM Tris-HCl pH 8.0, 1 mM EDTA, 50 mM NaCl, 4% glycerol, sheared salmon sperm DNA (printed as 1 g per reaction), 10 min, room temperature; details: protein: recombinant; chain copies: 2
# [3] = target: T3, RaaS R144A; experiment: as above; details: protein: recombinant; chain copies: 2
# [4] = target: the molecule itself; experiment: small-angle X-ray scattering; protein alone in solution at 1 and 3 mg/ml, data extrapolated to infinite dilution; apparent molecular mass from I(0)
Binder,Kd [1] [nM],Kd [2] [nM],Kd [3] [nM],stoichiometry N [4]
B1,654 ± 300,611 ± 120,129 ± 70,
B2,,,,2
B3,,,,2
